Positions count from the first letter of the chain named. “And” between values parts separate entries of the source, which are not always exact repeats. Equal values may be shown once.
T1: human TIGIT (human, UniProt Q495A1 22-244)
T1 sequence: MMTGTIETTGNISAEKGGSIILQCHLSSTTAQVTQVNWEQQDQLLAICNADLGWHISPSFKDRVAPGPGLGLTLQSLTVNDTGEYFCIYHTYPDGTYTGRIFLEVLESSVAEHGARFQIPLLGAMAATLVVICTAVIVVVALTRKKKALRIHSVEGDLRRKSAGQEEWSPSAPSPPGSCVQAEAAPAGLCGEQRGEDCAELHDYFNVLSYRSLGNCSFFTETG

T2: huTIGIT (PL44403) (human, UniProt Q495A1 22-141)
T2 construct: Soluble protein; also called Human TIGIT (Octet analyte, mono-Fc tag)
T2 sequence: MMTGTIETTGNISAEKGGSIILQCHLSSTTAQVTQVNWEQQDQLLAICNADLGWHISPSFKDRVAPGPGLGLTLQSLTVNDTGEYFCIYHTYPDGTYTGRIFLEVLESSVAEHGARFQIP

T3: human CD155 on cells (human, UniProt P15151 21-417)
T3 construct: whole, on cells; also called huCD155
T3 sequence (looked up): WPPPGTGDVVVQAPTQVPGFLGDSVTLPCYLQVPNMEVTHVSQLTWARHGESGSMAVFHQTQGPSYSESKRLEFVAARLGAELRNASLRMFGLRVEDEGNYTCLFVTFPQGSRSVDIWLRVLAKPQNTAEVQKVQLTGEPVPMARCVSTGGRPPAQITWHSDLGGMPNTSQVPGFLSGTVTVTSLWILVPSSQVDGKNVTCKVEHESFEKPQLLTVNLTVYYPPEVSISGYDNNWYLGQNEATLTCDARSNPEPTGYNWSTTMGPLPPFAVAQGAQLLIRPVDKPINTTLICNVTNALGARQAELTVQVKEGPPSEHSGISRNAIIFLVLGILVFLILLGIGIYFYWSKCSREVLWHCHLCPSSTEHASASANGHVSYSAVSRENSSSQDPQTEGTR

T4: human CD112R expressed on CHO K1 cells (pMSCV_FLAG_human CD112R (N81D)(41-326)_IRES_EGFP) (human, UniProt Q6DKI7 41-326)
T4 construct: also called huCD112R; human CD112R expressed on CHO cells; not shown: FLAG tag named in the vector
T4 sequence: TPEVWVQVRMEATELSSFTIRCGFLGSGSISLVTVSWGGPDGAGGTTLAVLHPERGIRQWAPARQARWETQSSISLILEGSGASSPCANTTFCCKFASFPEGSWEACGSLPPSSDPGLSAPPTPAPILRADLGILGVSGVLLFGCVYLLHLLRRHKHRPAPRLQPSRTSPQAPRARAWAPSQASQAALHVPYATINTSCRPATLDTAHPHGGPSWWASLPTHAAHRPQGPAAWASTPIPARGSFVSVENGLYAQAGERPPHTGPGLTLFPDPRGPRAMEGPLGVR

B1: 43B7 (antibody, V domains shown)
VH: QVQLQESGPGLVKPSQTLSLTCTVSGGSISSGGYYWSWIRQHPGKGLEWIGYIYYRGGTYYNPSLRSRVTMSVDTSKNQFSLMLSSVTAADTAVYYCARTIFGVIILDNWGQGTPVTVSS
VL: DIQMTQSPSSLSASVGDRVTITCRSSQSISSYLNWYQQKPGRAPKLLIHAASSLQSGVPSRFSGSGSGTDFTLTISSLQPEDFASYCCQQSYTTPPTFGGGTKVEIKR
notes: Fully human XenoMouse antibody, tested as hybridoma supernatant or purified mAb
B2: human CD226-Fc (Fc fusion, UniProt Q15762 19-247, looked up, not shown: a dimerising Fc or GST)
chain: EEVLWHTSVPFAENMSLECVYPSMGILTQVEWFKIGTQQDSIAIFSPTHGMVIRKPYAERVYFLNSTMASNNMTLFFRNASEDDVGYYSCSLYTYPQGTWQKVIQVVQSDSFEAAVPSNSHIVSEPGKNVTLTCQPQMTWPVQAVRWEKIQPRQIDLLTYCNLVHGRNFTSKFPRQIVSNCSHGRWSVIVIPDVTVSDSGLYRCYLQASAGENETFVMRLTVAEGKTDN
notes: also called huCD226; CD226-Fc (R&D, 666-DN)
B3: 11A3 (antibody, V domains shown)
VH: QVQLVQSGAEVKKPGASVKVSCKASGYTFTSYYIHWVRQAPGQGLEWMGIINPSGGRTSYAQMFQGRVTLTRDTSTNTVYMELSSLRSEDTAVFYCAKDREEQWPVGGFDYWGQGTLVTVSS
VL: DIQMTQSPSSLSASVGDRVTITCRASQNIRRYLNWYQQKPGKAPELLIYSASNLQNGVPSRFSGSGSGTDFTLTISSLQPEDFATYYCQQSYIIPPTFGQGTKVEIRR
notes: as for B1
B4: 28B8 (antibody, V domains shown)
VH: QVQLQESGPGLVKPSETLFLTCTVSGGSVTNYYWSWIRQPAGKGLEWIGRIYTSGSTYYNPSLKSRVTMSLDTSKNQFSLRLSSVTAADTAVYYCAREGFTMVRGVMGAFDIWGQGTMVTVSS
VL: B3 VL with N28S, K39I, E45K, L46F, S50D, N53S, N56S, I93S, I94T, R107K
notes: as for B1
B5: human CD112-Fc (Fc fusion, UniProt Q92692 32-360, looked up, not shown: a dimerising Fc or GST)
chain: QDVRVQVLPEVRGQLGGTVELPCHLLPPVPGLYISLVTWQRPDAPANHQNVAAFHPKMGPSFPSPKPGSERLSFVSAKQSTGQDTEAELQDATLALHGLTVEDEGNYTCEFATFPKGSVRGMTWLRVIAKPKNQAEAQKVTFSQDPTTVALCISKEGRPPARISWLSSLDWEAKETQVSGTLAGTVTVTSRFTLVPSGRADGVTVTCKVEHESFEEPALIPVTLSVRYPPEVSISGYDDNWYLGRTDATLSCDVRSNPEPTGYDWSTTSGTFPTSAVAQGSQLVIHAVDSLFNTTFVCTVTNAVGMGRAEQVIFVRETPNTAGAGATGG
notes: treated as the same reagent; also called Human CD112 Ligand; CD112 ligand

Key:
human TIGIT [1] = molecular target: T1, human TIGIT; test: cell-based or functional assay
human TIGIT [2] = molecular target: T1, human TIGIT; test: cell-based or functional assay; remark: listed apart in the source
huTIGIT (PL44403) = molecular target: T2, huTIGIT (PL44403); test: Octet, antibody on anti-huIgG Fc capture tips, huTIGIT as analyte
Description: (§1) In the case of cynoTIGIT, association was monitored for 5 min and dissociation for 5 min. […] The limit of detection of dissociation is 4e-5 based on a minimum of 5% dissociation over 20 minutes.

cynoTIGIT (PL40461) = molecular target: T5, cynoTIGIT (PL40461) (cynomolgus monkey); test: Octet, antibody on anti-huIgG Fc capture tips, cynoTIGIT as analyte
T5 construct: Soluble protein; also called Cyno TIGIT (Octet analyte)
T5 sequence (chain, as listed by the source limits assumed): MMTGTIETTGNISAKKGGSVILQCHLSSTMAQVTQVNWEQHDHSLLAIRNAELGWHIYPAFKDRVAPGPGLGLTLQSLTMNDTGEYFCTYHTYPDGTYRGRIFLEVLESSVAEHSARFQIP
Description: as §1

cynomolgus TIGIT [3] = molecular target: T6, cynomolgus TIGIT (cynomolgus monkey); test: flow cytometry, 1 µg/mL on activated primary cyno PBMCs, fold over isotype control
T6 construct: Cell-surface form; also called cyno TIGIT
T6 sequence (chain, as listed by the source): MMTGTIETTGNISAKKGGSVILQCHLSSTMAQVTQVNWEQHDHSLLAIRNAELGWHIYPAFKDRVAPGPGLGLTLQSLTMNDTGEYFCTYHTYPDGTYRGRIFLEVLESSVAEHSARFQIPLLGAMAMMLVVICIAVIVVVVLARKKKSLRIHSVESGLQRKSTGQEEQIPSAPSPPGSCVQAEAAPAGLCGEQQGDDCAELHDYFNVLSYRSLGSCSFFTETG
Description: (§2) The binding of hybridoma supernatants to TIGIT expressed by primary human and cynomolgus monkey cells were tested by flow cytometry. For human primary cell binding assay, purified human T cells (Biological Specialty Corp.) were thawed and suspended at a concentration of 2.5×10⁶ cells/mL. […] After 72 hours, cells were removed, washed and suspended at a concentration of 0.5×10⁶ cells/mL with 10 ng/mL of IL-2 (Pepro Tech). Cells were then incubated for another 48 to 72 hours at 37° C./5% CO₂. For cynomolgus primary cell binding assay, cynomolgus PBMCs (SNBL) were thawed and suspended in a concentration between 4×10⁶ and 5×10⁶ cells/mL. […] After 72 hours, cells were removed, washed and suspended at a concentration of 0.5×10E6 cells/mL with 20 ng/mL of IL-2 (Pepro Tech). Cells were then incubated for another 48 to 72 hours at 37° C./5% CO₂. After the final incubation, cells were prepared for flow cytometry by incubation with normalized hybridoma supernatants, positive control antibodies and isotype control antibodies at 1 μg/mL final concentration. […] Cells were then run on BD FACSCanto II flow cytometer to detect anti-TIGIT antibody binding.

human TIGIT [4] = molecular target: T1, human TIGIT; test: flow cytometry, 1 µg/mL on activated primary human T cells, fold over isotype control
Description: as §2

human TIGIT [5] = molecular target: T1, human TIGIT; test: flow cytometry on CHO-S cells expressing human TIGIT, competitor CD112-Fc-Alexa 647, at 1 ug/mL
Description: (§3) TIGIT-binding hybridoma supernatants were then tested for their ability to block TIGIT from binding ligand. […] The 7-AAD cell viability stain was then added and the cells incubated for a further 15 minutes at 4° C., washed twice and resuspended in FACS buffer. Samples were analyzed using a BD Accuri™ Flow Cytometer and an Intellicyt HyperCyt autoSampler.

human TIGIT [6] = molecular target: T1, human TIGIT; test: flow cytometry on CHO-S cells expressing human TIGIT, competitor huCD155-Fc-Alexa 647, at 1.7 µg/mL
Description: as §3

human CD155 on cells = molecular target: T3, human CD155 on cells; test: flow cytometry, CD226-Fc at 10 ug/mL on mock-transfected 293T cells
Description: In the presence of tool TIGIT antibodies, TIGIT expressed by TIGIT-293 cells is bound by tool antibodies and is blocked from binding to CD155, thereby allowing CD226 to interact with CD155. […] Cells were washed 1× with FACS Buffer and resuspended in FACS buffer. Samples were analyzed using a BD Accuri™ Flow Cytometer and an Intellicyt HyperCyt autoSampler.

cynomolgus TIGIT [7] = molecular target: T6, cynomolgus TIGIT; test: flow cytometry on activated primary cyno PBMCs, fold over isotype control
Description: as §2

[8] = molecular target: T4, human CD112R expressed on CHO K1 cells …; test: flow cytometry on CHO K1 cells expressing human CD112R

Row | Binder | activity in the primary CD8 memory T-cell assay (IFN-γ release, CHO-K1-CD155+ cells) (human TIGIT [1]) [pM] | Potency [nM], Jurkat human TIGIT/IL-2-luciferase RGA, n = 1 (human TIGIT [2]) [nM] | Potency [nM], Jurkat human TIGIT/IL-2-luciferase RGA, n = 2 (human TIGIT [2]) [nM] | Kd (huTIGIT (PL44403)) [nM] | Kd (cynoTIGIT (PL40461)) [nM] | FACS Geomean Fold (cynomolgus TIGIT [3]) [fold] | FACS Geomean Fold (human TIGIT [4]) [fold] | % inhibition (human TIGIT [5]) [%] | % inhibition (human TIGIT [6]) [%] | binding result (human CD155 on cells) | binding result (cynoTIGIT (PL40461)) | binding result (cynomolgus TIGIT [7]) | EC50 [8]
1 | B1 | 90 | 3.4 | 2.5 | < 0.1 | 13 | 4.7 | 13.7 | 100 | 100 |  |  |  | 
2 | B2 |  |  |  |  |  |  |  |  |  | binds |  |  | 
3 | B3 |  | 1.9 | 2.7 | < 0.1 |  |  | 11.6 | 100 | 100 |  | no binding | no binding (tested: 1 µg/mL) | 
4 | B4 | 160 | 4.3 | 2.1 | < 0.1 |  |  | 14.4 | 97 | 100 |  | no binding | no binding (tested: 1 µg/mL) | 
5 | B5 |  |  |  |  |  |  |  |  |  |  |  |  | 1.61 µg/mL and 12.8 nM
